Measured values: US20260242478A1 (published 2026)
Where no end group is shown, it is not given here.

B1: Phage-3191 (peptide, not shown: large carriers)
peptide: QHWQCVPRWMCDGF
notes: Clonal phage of the Peptide-180 library, tested as crude supernatant
B2: Phage-3196 (peptide, not shown: large carriers)
peptide: VEVRCVPAWMCTGF
notes: as for B1
B3: Phage-3197 (peptide, not shown: large carriers)
peptide: LSPMCVPQWMCSGF
notes: as for B1
B4: Phage-3195 (peptide, not shown: large carriers)
peptide: HEHFCRPLWMCTGL
notes: as for B1
B5: Phage-3194 (peptide, not shown: large carriers)
peptide: DMPLCIPAWMCAGF
modifications: cysteine pairing not given here; also: fused to phage pIII, junction sequence not given here
notes: as for B1
B6: Phage-3189 (peptide, not shown: large carriers)
peptide: LEALCVPRWMCEGF
notes: as for B1
B7: Phage-3192 (peptide, not shown: large carriers)
peptide: EVVMCRPLWMCSGF
notes: as for B1
B8: Phage-3190 (peptide, not shown: large carriers)
peptide: ADLRCVPEWMCMGI
notes: as for B1
B9: Phage-3198 (peptide, not shown: large carriers)
peptide: FDRVCKPEWMCNGL
notes: as for B1
B10: Phage-3193 (peptide, not shown: large carriers)
peptide: GEAVCIPRWMCDGF
notes: as for B1
B11: Phage-3201 (peptide)
peptide: VVPLCIPQWMCAVF
modifications: cysteine pairing not given here; also: fused to phage pIII, linker and order not given here
notes: Peptide-180 library clone, tested as clonal phage supernatant; not shown: pIII filament protein of the bacteriophage, to which the peptide is fused
B12: Phage-3200 (peptide)
peptide: VTPLCVPKWMCELF
modifications: cysteine pairing not given here; also: fused to phage pIII, linker and order not given here
notes: as for B11
B13: Phage-3202 (peptide)
peptide: VVVSCIPTWMCVGF
modifications: cysteine pairing not given here; also: fused to phage pIII, linker and order not given here
notes: as for B11
B14: Phage-3199 (peptide)
peptide: VTVRCEPAWMCMGF
modifications: cysteine pairing not given here; also: fused to phage pIII, linker and order not given here
notes: as for B11

The binders below were run against T1, PSMA Fab (006 PSMA Fab) (assay: clonal phage ELISA on biotinylated PSMA Fab captured on neutravidin, anti-M13-HRP detection;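 further: crude clonal phage supernatants added to wells preincubated with PSMA antigen in blocking buffer or with blocking buffer alone, brief binding period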).
T1 construct: also called Anti-PSMA Fab; anti-PSMA Fab
Description: (§1) Clonal phage were harvested as crude supernatants and screened via standard ELISAs. […] Prior to the addition of clonal phage. wells were incubated with blocking buffer and PSMA antigen or blocking buffer alone. Without washing or aspirating, clonal phage supernatants were then added to the wells and incubated for a short time. Wells were then washed followed by detection of bound phage using a horse radish conjugated anti-M13 antibody.

Binder | Phage binding ELISA signal, Anti-PSMA Fab
B1 | 2
B2 | 1.99
B3 | 1.99
B4 | 1.99
B5 | 1.99
B6 | 2
B7 | 2
B8 | 2
B9 | 1.99
B10 | 1.99

These binders were tested against T1, PSMA Fab (006 PSMA Fab) (assay: clonal phage ELISA on captured PSMA Fab, wells pre-incubated with PSMA antigen as competitor).
Description: as §1

Binder | Phage binding ELISA signal, Anti-PSMA Fab in presence of PSMA antigen
B1 | 0.103
B2 | 0.0941
B3 | 0.119
B4 | 0.0753
B5 | 0.0615
B6 | 0.096
B7 | 0.0925
B8 | 0.0654
B9 | 0.0655
B10 | 0.0937

These binders were tested against T2, PSMA Fab (assay: phage binding ELISA; biotinylated PSMA Fab on neutravidin plate, clonal phage supernatant, anti-M13 HRP detection; blocking buffer alone;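 further: before phage were added, wells were preincubated with blocking buffer either containing PSMA antigen or without it, and phage were then added with no wash in between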).
T2 construct: also called Anti-PSMA Fab; 006 PSMA Fab
Description: as §1

Binder | Phage binding ELISA signal, Anti-PSMA Fab
B11 | 1.98
B12 | 1.98
B13 | 1.98
B14 | 1.98

These binders were tested against T2, PSMA Fab (assay: phage binding ELISA; biotinylated PSMA Fab on neutravidin plate, wells pre-incubated with PSMA antigen as competitor, clonal phage supernatant, anti-M13 HRP detection).
Description: as §1

Binder | Phage binding ELISA signal, Anti-PSMA Fab in presence of PSMA
B11 | 0.0757
B12 | 0.0878
B13 | 0.103
B14 | 0.0999
